The text below walks through data of patent US7105290 (PROCTER AND GAMBLE, dated 2006).

The target of assay [1] is T1, mouse BMP receptor kinase protein m-BRK-3 (mouse), O35607.
T1 chain: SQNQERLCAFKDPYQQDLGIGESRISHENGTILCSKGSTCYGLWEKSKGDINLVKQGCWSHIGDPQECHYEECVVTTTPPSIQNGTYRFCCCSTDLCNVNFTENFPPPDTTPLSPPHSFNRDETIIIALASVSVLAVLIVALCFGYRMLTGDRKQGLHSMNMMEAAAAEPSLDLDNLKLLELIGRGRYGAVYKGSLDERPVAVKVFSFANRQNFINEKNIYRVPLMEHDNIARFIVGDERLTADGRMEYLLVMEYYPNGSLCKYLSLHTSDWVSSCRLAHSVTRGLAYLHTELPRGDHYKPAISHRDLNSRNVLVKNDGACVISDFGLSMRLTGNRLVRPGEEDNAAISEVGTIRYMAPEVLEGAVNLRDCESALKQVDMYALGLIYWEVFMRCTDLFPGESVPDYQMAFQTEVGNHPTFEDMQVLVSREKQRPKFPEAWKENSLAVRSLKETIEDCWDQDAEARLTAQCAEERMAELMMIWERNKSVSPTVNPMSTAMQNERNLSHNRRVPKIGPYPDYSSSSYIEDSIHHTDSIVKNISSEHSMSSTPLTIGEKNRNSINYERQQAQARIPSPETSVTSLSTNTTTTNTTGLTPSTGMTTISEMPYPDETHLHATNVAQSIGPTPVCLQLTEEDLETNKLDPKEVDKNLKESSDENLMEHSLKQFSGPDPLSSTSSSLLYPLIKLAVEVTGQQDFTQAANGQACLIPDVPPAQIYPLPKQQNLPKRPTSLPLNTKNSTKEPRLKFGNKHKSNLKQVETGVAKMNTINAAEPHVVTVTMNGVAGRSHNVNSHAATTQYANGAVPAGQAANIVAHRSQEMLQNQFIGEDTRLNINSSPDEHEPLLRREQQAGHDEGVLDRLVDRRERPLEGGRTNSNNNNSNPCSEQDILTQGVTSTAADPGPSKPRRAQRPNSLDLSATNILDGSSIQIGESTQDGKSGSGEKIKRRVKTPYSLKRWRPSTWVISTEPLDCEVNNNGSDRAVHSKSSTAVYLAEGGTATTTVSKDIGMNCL
In words: whole cell binding of radiolabeled ligand, COS-1 cells transfected with pJT6-mBRK-3S or pJT6-mBRK-3L. The note with it: remark: other sources report otherwise; scale: times the level seen with mock transfected cells.

The target in assay [2] is T2, BRK-2 co-expressed with t-BRK-3 (BRK-2/t-BRK-3 complex) (chicken; human, UniProt Q05438 14-502; Q13873 27-540).
T2 construct: Both receptors co-transfected into COS cells; also called BRK-2 and BRK-3 receptor complex; BRK-2 plus t-BRK-3
T2 sequence (Q05438 14-502 limits assumed, one chain of several): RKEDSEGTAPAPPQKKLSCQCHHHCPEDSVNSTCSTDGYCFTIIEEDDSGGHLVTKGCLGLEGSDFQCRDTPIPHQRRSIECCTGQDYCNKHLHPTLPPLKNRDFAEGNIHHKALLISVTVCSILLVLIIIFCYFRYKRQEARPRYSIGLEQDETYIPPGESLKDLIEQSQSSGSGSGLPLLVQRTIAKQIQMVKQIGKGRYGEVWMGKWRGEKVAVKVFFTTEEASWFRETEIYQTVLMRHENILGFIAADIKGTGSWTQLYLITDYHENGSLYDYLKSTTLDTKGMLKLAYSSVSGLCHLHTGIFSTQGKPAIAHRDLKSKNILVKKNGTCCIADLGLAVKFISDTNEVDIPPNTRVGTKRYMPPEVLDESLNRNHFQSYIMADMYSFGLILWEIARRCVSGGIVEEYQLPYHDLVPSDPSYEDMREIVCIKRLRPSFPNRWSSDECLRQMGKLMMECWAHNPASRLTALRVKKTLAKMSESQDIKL
The assay is described as follows: competition, 10 nM unlabeled ligand against [^125I]-BMP-4; crosslinking and immunoprecipitation with antiserum 1380.
Experimental: Following the crosslinking, cells are washed three times with ice-cold PBS, then lysed with 1 ml of RIP buffer (20 mM TrisCl, pH 8.0, 100 mM NaCl, 1 mM Na_2EDTA, 0.5% Nonidet P-40, 0.5% sodium deoxycholate, 10 mM sodium iodide, and 1% bovine serum albumin) for 10 min. The lysate is centrifuged in a microcentrifuge at 13,000 rpm for 10 min at 4° C. The supernatant is transferred to a fresh tube and made 0.1% in SDS. To remove any existing antibody present in the lysate, 50 µl of PANSORBIN (Calbiochem, La Jolla, Calif.; a 10% solution of *Staphylococcus aureus*) is added. After a 30 minute incubation at 4° C., the lysate is centrifuged as before, and the supernatant again transferred to a fresh tube.
To precipitate the complex of antigen:primary antibody, 25–50 µl of PANSORBIN is then added and incubated 30 min on ice. The complex is pelleted at 13,000 rpm for 10 min in a microcentrifuge and the supernatant discarded. The pellet is washed twice in RIP buffer containing 0.1% SDS, and once in TNEN buffer (20 mM Tris, pH 8.0, 100 mM NaCl, 1 mM EDTA, 0.5% NP-40). The pellet is resuspended in 25 µl of 1× sample loading buffer. (Alternatively, the pellet may be washed twice with TNEN buffer, with similar results.) The sample is boiled for 5 min, centrifuged for 5 min, and subjected to gel electrophoresis after loading of the samples onto a 7.5% SDS-polyacrylamide gel.

B1: bone morphogenetic protein 4, P12644 293-408 (ligand, UniProt P12644 293-408, looked up)
chain: SPKHHSQRARKKNKNCRRHSLYVDFSDVGWNDWIVAPPGYQAFYCHGDCPFPLADHLNSTNHAIVQTLVNSVNSSIPKACCVPTELSAISMLYLDEYDKVVLKNYQEMVVEGCGCR
modifications: here or on the partner: 125I-labelled when used as tracer ([^125I]-BMP-4; IODOBEADS or chloramine-T method); unlabeled when used as competitor
Consider B1, for which the specific binding of [^125I]-BMP-4 relative to mock transfected cells in assay [1] is 4 to 7.

B2: bone morphogenetic protein 2 (ligand, UniProt P12643 283-396, looked up)
chain: QAKHKQRKRLKSSCKRHPLYVDFSDVGWNDWIVAPPGYHAFYCHGECPFPLADHLNSTNHAIVQTLVNSVNSKIPKACCVPTELSAISMLYLDENEKVVLKNYQDMVVEGCGCR
notes: also called BMP-2
B2: in assay [2], the binding result is “binds”.
